system: Escherichia coli TOP10; test: shrunken log2 fold change of peptide-encoding DNA abundance (4.5 h post-induction vs induction); higher = less antimicrobial activity (less host growth inhibition); conditions: time post-induction: 4.5 h; library: site-saturation at positions 5, 18, 19, 20
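Also: peptides expressed intracellularly from a pBAD plasmid library in pooled LB shake-flask culture, induced with 0.3% L-arabinose, DNA abundance read by NGS, three biological replicates, DESeq2 with apeglm shrinkage.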

| Sequence | shrunken log2 fold change |
| --- | --- |
| RRIRPRPPRLPRPRPRPYGYPRP | -0.138 |
| RRIRLRPPRLPRPRPRPELSPRP | -0.113 |
| RRIRTRPPRLPRPRPRPPYQPRP | 0.0802 |
| RRIRKRPPRLPRPRPRPVRHPRP | 0.0899 |
| RRIRVRPPRLPRPRPRPPATPRP | 0.18 |
| RRIRSRPPRLPRPRPRPSIEPRP | -0.013 |
| RRIRPRPPRLPRPRPRPPTSPRP | 0.276 |
| RRIRKRPPRLPRPRPRPFTWPRP | 1.37 |
| RRIRWRPPRLPRPRPRPCMLPRP | -0.215 |
| RRIRCRPPRLPRPRPRPDNHPRP | -0.719 |
| RRIRQRPPRLPRPRPRPMQNPRP | -0.324 |
| RRIRIRPPRLPRPRPRPDWQPRP | -0.00422 |
| RRIRHRPPRLPRPRPRPWNFPRP | -0.0202 |
| RRIRHRPPRLPRPRPRPMRMPRP | -0.00476 |
| RRIRMRPPRLPRPRPRPPLKPRP | 1.23 |
| RRIRFRPPRLPRPRPRPRPQPRP | 0.684 |
| RRIRNRPPRLPRPRPRPNTSPRP | -0.0898 |
| RRIRYRPPRLPRPRPRPVAFPRP | -0.717 |
| RRIRGRPPRLPRPRPRPQFGPRP | 0.0436 |
| RRIRTRPPRLPRPRPRPFGFPRP | -0.473 |

| Sequence | shrunken log2 fold change |
| --- | --- |
| RRIRNRPPRLPRPRPRPHVTPRP | -0.357 |
| RRIRDRPPRLPRPRPRPRFSPRP | -0.037 |
| RRIRWRPPRLPRPRPRPGVPPRP | 0.184 |
| RRIRKRPPRLPRPRPRPSPWPRP | 0.141 |
| RRIRNRPPRLPRPRPRPWYAPRP | -0.533 |
| RRIRGRPPRLPRPRPRPYYLPRP | -0.791 |
| RRIRLRPPRLPRPRPRPWMSPRP | -0.55 |
| RRIRMRPPRLPRPRPRPKHCPRP | 0.0651 |
| RRIRQRPPRLPRPRPRPAVDPRP | 0.963 |
| RRIRRRPPRLPRPRPRPWAVPRP | -0.00967 |
| RRIRLRPPRLPRPRPRPTLDPRP | 0.0159 |
| RRIRGRPPRLPRPRPRPMHSPRP | 0.668 |
| RRIRKRPPRLPRPRPRPERLPRP | 0.209 |
| RRIRNRPPRLPRPRPRPCWCPRP | -0.147 |
| RRIRMRPPRLPRPRPRPECKPRP | 0.0491 |
| RRIRRRPPRLPRPRPRPLCCPRP | 0.293 |
| RRIRGRPPRLPRPRPRPEHEPRP | 0.176 |
| RRIRCRPPRLPRPRPRPLEQPRP | 0.0367 |
| RRIRIRPPRLPRPRPRPCVFPRP | -1.22 |
| RRIRPRPPRLPRPRPRPDHGPRP | -0.0198 |

| Sequence | shrunken log2 fold change |
| --- | --- |
| RRIRHRPPRLPRPRPRPWFKPRP | 0.0141 |
| RRIRMRPPRLPRPRPRPGKSPRP | 0.0127 |
| RRIRTRPPRLPRPRPRPVFAPRP | 0.214 |
| RRIRDRPPRLPRPRPRPPHYPRP | 0.0761 |
| RRIRERPPRLPRPRPRPHETPRP | -0.0135 |
| RRIRQRPPRLPRPRPRPQCCPRP | -0.0133 |
| RRIRCRPPRLPRPRPRPSSHPRP | -0.0983 |
| RRIRTRPPRLPRPRPRPQNRPRP | -0.199 |
| RRIRNRPPRLPRPRPRPPIKPRP | -0.279 |
| RRIRVRPPRLPRPRPRPHHYPRP | 0.13 |
| RRIRHRPPRLPRPRPRPTEDPRP | -0.00383 |
| RRIRGRPPRLPRPRPRPSQPPRP | 0.138 |
| RRIRKRPPRLPRPRPRPQTCPRP | -0.132 |
| RRIRDRPPRLPRPRPRPCQIPRP | 0.0759 |
| RRIRYRPPRLPRPRPRPNGKPRP | -0.186 |
| RRIRGRPPRLPRPRPRPKYMPRP | 0.104 |
| RRIRHRPPRLPRPRPRPLFTPRP | -0.699 |
| RRIRIRPPRLPRPRPRPPYKPRP | -0.386 |
| RRIRFRPPRLPRPRPRPEVKPRP | -0.00444 |
| RRIRIRPPRLPRPRPRPRPRPRP | 0.472 |

Reference: the supplement of paper PMC9112550, “Optimization of the antimicrobial peptide Bac7 by deep mutational scanning” (BMC Biology, 2022)
